Source: article PMC5345129
Each block holds one molecule with its values, some of them ahead of it.

Experiments:
[1] = target: myc-tagged, constitutively active Gα12 (GTPase-deficient Q229L mutant) (UniProt P27600); assay: GST co-precipitation (pull-down), immunoblot bands quantified with ImageJ; details: parent: 100; read off a plot
[2] = target: GST-fusion of the RH domain of LARG (leukemia-associated RhoGEF); assay: GST co-precipitation (pull-down) from HEK293 cell extracts, immunoblot bands quantified with ImageJ; details: parent: est. 100; read off a plot
[3] = target: GST-fusion of the 257-amino acid C-terminus of AKAP-Lbc; assay: as above; details: parent: est. 100; read off a plot
[4] = target: GST-fusion of the 257-amino acid region of p114RhoGEF corresponding to the Gα12-binding region of AKAP-Lbc; assay: as above; details: parent: est. 100; read off a plot
[5] = target: T1, GST-fusion of the 257-amino acid region of p114RhoGEF corresponding to the Gα12-binding region of AKAP-Lbc (human); assay: pull-down; GST fusion proteins bound to Glutathione Sepharose 4B; Gα variants from high-speed supernatants of transfected HEK293 cells, detergent diluted to 0.05% polyoxyethylene-10-lauryl ether; 50 mM HEPES pH 7.5, 1 mM EDTA, 3 mM dithiothreitol, 10 mM MgSO4; 2 h at 4°C; three washes; immunoblot (anti-Gα12, anti-myc or anti-EGFP); 5% of the extract kept as load
T1 sequence (Q6ZSZ5 whole entry, looked up): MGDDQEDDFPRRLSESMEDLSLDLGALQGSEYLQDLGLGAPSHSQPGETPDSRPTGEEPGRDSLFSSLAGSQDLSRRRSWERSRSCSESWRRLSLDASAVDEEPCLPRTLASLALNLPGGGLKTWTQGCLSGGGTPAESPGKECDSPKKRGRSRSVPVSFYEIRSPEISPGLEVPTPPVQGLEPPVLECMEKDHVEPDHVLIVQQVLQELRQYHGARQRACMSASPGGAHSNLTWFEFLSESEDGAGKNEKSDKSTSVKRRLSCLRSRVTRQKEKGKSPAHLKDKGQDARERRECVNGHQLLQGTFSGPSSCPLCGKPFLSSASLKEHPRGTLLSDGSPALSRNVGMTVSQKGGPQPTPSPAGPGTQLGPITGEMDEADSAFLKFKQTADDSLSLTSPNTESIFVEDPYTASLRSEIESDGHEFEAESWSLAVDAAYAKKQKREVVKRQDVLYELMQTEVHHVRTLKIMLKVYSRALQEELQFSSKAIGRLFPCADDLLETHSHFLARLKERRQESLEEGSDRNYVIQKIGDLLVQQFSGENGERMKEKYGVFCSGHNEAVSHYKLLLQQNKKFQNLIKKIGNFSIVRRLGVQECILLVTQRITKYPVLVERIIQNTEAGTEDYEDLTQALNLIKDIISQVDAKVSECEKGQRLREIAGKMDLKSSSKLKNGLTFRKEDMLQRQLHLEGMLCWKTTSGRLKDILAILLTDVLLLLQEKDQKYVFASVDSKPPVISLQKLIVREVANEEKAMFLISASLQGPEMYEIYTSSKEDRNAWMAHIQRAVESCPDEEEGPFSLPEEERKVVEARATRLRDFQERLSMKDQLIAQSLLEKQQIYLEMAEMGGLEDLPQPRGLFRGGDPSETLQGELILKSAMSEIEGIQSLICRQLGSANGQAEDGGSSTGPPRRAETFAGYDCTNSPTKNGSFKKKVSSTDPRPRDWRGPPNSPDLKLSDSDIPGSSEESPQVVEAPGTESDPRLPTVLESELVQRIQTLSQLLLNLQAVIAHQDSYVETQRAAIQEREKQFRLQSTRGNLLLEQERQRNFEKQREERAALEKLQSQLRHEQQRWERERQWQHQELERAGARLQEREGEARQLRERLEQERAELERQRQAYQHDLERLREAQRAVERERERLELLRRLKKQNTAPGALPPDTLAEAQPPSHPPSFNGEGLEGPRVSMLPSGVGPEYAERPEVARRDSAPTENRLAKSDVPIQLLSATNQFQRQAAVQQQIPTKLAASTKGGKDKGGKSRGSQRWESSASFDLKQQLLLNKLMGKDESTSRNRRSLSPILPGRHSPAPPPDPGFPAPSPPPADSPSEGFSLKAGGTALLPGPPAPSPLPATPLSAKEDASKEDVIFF

[6] = target: GST-fusion of the 257-amino acid C-terminus of AKAP-Lbc (human); assay: as above
GST-fusion of the 257-amino acid C-terminus of AKAP-Lbc (human), sequence (Q12802 whole entry, the tested form may be a part): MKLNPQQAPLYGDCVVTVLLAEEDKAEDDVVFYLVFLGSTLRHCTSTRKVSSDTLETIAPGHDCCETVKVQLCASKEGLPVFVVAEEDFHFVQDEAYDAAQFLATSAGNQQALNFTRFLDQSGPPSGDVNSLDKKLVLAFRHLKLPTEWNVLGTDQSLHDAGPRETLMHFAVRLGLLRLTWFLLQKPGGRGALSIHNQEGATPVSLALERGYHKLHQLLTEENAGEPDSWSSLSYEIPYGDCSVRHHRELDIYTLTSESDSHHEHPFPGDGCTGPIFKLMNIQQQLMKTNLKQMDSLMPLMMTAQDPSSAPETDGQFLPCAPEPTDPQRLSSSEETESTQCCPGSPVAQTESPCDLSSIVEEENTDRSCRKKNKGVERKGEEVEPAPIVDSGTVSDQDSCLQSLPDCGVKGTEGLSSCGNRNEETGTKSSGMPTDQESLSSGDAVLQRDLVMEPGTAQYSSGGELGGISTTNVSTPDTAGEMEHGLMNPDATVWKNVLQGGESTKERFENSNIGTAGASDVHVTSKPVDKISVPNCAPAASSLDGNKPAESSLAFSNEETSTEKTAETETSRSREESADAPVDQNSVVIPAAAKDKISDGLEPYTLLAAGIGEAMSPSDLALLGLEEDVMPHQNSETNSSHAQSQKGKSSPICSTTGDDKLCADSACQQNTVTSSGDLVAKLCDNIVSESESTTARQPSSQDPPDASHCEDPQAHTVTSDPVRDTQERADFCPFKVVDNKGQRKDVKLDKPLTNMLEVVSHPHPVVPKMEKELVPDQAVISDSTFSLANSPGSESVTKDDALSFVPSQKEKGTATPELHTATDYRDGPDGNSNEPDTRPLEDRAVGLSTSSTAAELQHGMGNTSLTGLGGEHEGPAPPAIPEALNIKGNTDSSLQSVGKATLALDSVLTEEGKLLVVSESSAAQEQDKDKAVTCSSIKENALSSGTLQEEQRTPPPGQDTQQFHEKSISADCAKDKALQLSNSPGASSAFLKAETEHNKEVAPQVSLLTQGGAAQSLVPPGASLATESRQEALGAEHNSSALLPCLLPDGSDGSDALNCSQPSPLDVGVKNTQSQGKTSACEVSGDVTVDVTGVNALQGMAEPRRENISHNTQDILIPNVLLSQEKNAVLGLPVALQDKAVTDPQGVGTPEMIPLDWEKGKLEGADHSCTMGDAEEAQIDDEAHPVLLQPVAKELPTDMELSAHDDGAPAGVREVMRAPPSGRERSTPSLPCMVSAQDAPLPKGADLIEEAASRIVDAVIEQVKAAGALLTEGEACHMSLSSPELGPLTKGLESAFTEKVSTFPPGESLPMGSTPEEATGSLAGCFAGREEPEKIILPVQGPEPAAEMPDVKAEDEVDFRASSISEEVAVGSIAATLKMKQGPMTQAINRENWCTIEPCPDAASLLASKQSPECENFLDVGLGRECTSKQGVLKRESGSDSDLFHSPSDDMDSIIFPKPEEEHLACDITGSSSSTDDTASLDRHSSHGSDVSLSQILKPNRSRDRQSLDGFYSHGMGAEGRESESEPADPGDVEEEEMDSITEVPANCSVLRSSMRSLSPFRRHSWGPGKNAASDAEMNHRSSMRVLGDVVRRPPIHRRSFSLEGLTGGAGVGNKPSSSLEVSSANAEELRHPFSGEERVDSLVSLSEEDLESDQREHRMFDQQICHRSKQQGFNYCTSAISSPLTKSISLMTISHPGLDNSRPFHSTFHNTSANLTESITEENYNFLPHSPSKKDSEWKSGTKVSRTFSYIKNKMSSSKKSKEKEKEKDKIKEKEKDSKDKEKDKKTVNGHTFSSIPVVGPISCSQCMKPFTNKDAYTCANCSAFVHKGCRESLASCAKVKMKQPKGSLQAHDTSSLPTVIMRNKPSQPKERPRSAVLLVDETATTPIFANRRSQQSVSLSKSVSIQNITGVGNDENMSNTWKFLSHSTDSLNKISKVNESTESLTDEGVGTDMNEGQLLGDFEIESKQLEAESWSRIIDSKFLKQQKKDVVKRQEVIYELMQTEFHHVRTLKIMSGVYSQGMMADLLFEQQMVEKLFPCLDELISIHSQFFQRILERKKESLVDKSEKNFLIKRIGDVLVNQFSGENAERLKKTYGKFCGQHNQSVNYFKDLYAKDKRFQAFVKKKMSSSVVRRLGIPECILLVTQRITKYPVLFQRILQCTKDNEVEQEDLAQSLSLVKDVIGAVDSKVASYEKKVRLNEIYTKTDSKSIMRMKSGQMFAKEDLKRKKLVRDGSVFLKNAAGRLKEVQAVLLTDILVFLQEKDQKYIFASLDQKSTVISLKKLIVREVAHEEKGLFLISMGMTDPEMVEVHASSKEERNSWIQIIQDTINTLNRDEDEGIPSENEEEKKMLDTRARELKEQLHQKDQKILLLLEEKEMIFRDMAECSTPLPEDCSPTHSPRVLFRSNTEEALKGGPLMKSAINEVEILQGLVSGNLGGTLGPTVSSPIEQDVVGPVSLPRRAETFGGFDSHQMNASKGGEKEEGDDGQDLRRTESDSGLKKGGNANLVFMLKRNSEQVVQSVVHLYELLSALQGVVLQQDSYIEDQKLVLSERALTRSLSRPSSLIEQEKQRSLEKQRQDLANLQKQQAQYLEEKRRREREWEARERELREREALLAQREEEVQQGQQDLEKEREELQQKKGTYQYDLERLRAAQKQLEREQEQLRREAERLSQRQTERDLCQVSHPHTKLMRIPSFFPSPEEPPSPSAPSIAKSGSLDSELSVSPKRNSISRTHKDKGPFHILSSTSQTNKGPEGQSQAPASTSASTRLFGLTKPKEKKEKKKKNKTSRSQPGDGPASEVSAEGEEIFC

percent of parent [1]: 29 % of control
Molecule: GST-fusion of the 257-amino acid C-terminus of AKAP-Lbc E2576R

percent of parent [1]: 33 % of control
Molecule: GST-fusion of the 257-amino acid C-terminus of AKAP-Lbc E2670R

percent of parent (% of 12QL control) [2]: 92
Molecule: myc-tagged, constitutively active Gα12 (GTPase-deficient Q229L mutant) (from UniProt P27600) C11A

percent of parent (% of 12QL control) [3]: 105
percent of parent (% of 12QL control) [4]: 95
percent of parent (% of 12QL control) [2]: 16
Molecule: myc-tagged, constitutively active Gα12 (GTPase-deficient Q229L mutant) (from UniProt P27600) Δ244-249 (sextet Asn-Ala-Ala-Ile-Arg-Ser in place of native residues 244-249)

percent of parent [1]: 37 % of control
Molecule: GST-fusion of the 257-amino acid region of p114RhoGEF corresponding to the Gα12-binding region of AKAP-Lbc E789R

percent of parent [1]: 42 % of control
Molecule: GST-fusion of the 257-amino acid region of p114RhoGEF corresponding to the Gα12-binding region of AKAP-Lbc E695R

% loss of binding (co-precipitated Gα12 normalized for starting material, against non-mutated Gα12 Q229L) [5]: 72%
% loss of binding (co-precipitated Gα12 normalized for starting material, against non-mutated Gα12 Q229L) [6]: 60%
B1: myc-tagged, constitutively active Gα12 (Q229L) with C11A substitution (natural protein)
chain: MSGVVRTLSRALLPAEAGARERRAGAARDAEREARRRSRDIDALLARERRAVRRLVKILLLGAGESGKSTFLKQMRIIHGREFDQKALLEFRDTIFDNILKGSRVLVDARDKLGIPWQHSENEKHGMFLMAFENKAGLPVEPATFQLYVPALSALWRDSGIREAFSRRSEFQLGESVKYFLDNLDRIGQLNYFPSKQDILLARKATKGIVEHDFVIKKIPFKMVDVGGLRSQRQKWFQCFDGITSILFMVSSSEYDQVLMEDRRTNRLVESMNIFETIVNNKLFFNVSIILFLNKMDLLVEKVKSVSIKKHFPDFKGDPHRLEDVQRYLVQCFDRKRRNRSKPLFHHFTTAIDTENIRFVFHAVKDTILQENLKDIMLQ
